Patent US20240166760A1 (UNIVERSITY OF PITTSBURGH OF THE COMMONWEALTH SYSTEM OF …, published 2024)

Experiments:
[1] = molecular target: T1, Fc-fused CEACAM5 A3B3 domain N580Q mutant (human, UniProt P06731 501-682); test: indirect ELISA
T1 construct: N-glycosylation site mutant of A3B3-Fc; not shown: human IgG1 Fc carrier and its junction to A3B3
T1 chain: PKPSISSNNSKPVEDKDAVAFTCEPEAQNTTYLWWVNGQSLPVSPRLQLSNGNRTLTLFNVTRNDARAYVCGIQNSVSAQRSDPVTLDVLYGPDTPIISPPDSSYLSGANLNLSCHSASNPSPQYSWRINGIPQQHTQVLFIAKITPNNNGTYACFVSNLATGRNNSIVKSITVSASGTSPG
Method: Binding and specificity of scFv, Fab, or IgG to CEACAM related proteins were analyzed through indirect ELISA. Briefly, Fc-fused CEACAM5 polypeptides, CEACAM6 polypeptides, extra-cellular domain of CEACAM5 (R&D systems, 4128-CM), CEACAM6 (R&D systems, 3934-CM), or cynomolgus CEACAM5 (Sino biological, 90891-C08H) was coated on a 96 well plate (Corning, 3690) at 200 ng/well (50 μL volume) in PBS for 2 hours at room temperature. Blocking was carried out with 3% BSA in PBS for overnight at 4° C. Next day, various concentration of scFv, Fab, or IgG was treated to antigen coated plates and incubated for 1 hour at room temperature. After washing three times, anti-FLAG mouse antibody (M2 clone)-HRP conjugated (Sigma, A8592, 1:3000 dilution) or anti-human kappa goat antibody-HRP conjugated (Invitrogen, A18853, 1:3000 dilution) was treated for binding detection. Same volume of TMB (Thermo, PI34028) was added as a substrate, and then enzymatic reaction was stopped by adding of 2N sulfonic acid. The monomeric Fc fused-CD16a (Fc γRIIIa), CD64 (Fc γRIa) and CD32 (Fc γRIIa) were obtained from Prof. Wei Li (University of Pittsburgh, PA) and used for Fc gamma receptor (FcγR) binding test. […]

[2] = molecular target: T2, Human IgG1 Fc-fused CEACAM5 A3B3 (residues 501-682) (UniProt P06731 501-682); test: SPR (Biacore)
T2 chain: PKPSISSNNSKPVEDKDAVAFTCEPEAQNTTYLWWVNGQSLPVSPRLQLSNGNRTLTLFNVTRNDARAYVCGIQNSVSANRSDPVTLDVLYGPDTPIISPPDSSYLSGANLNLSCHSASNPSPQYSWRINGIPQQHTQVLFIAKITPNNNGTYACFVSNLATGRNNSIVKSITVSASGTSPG

[3] = molecular target: T3, Human IgG1 Fc-fused CEACAM5 A1B1 (residues 145-322) (human, UniProt P06731 145-322); test: indirect ELISA / BIAcore
T3 construct: also called CEACAM5 A1B1-Fc; A1B1 domains of CEACAM5; not shown: human immunoglobulin 1 Fc region (hIgG1 Fc)
T3 sequence: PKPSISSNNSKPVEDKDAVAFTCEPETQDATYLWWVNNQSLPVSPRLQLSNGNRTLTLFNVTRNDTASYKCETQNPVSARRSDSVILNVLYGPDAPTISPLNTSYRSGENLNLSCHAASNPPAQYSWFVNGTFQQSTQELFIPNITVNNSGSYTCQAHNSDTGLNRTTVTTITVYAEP

[4] = molecular target: T4, Human IgG1 Fc-fused CEACAM5 A2B2 (residues 323-500) (human, UniProt P06731 323-500); test: indirect ELISA / BIAcore
T4 construct: also called CEACAM5 A2B2-Fc; A2B2 domains of CEACAM5; not shown: human immunoglobulin 1 Fc region (hIgG1 Fc)
T4 chain: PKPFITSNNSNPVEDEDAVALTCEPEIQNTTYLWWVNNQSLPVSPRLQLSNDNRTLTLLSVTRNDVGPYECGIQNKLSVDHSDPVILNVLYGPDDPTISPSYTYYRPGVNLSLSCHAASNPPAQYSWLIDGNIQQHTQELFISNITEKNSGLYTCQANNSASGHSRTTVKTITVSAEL

[5] = molecular target: T5, Human IgG1 Fc-fused CEACAM5 A3B3 (residues 501-682) (human, UniProt P06731 501-682); test: indirect ELISA, antigen coated on plate
T5 construct: Expressed in Freestyle HEK cells and N-glycosylated; also called CEACAM5 A3B3-Fc; A3B3-Fc; not shown: human immunoglobulin 1 Fc region (hIgG1 Fc)
T5 sequence: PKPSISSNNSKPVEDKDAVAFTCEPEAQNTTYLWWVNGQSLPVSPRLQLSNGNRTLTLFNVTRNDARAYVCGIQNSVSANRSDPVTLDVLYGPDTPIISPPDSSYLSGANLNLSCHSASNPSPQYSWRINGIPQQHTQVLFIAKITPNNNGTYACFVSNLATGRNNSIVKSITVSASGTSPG
Method: Binding and specificity of scFv, Fab, or IgG to CEACAM related proteins were analyzed through indirect ELISA. Briefly, Fc-fused CEACAM5 polypeptides, CEACAM6 polypeptides, extra-cellular domain of CEACAM5 (R&D systems, 4128-CM), CEACAM6 (R&D systems, 3934-CM), or cynomolgus CEACAM5 (Sino biological, 90891-C08H) was coated on a 96 well plate (Corning, 3690) at 200 ng/well (50 μL volume) in PBS for 2 hours at room temperature. Blocking was carried out with 3% BSA in PBS for overnight at 4° C. Next day, various concentration of scFv, Fab, or IgG was treated to antigen coated plates and incubated for 1 hour at room temperature. After washing three times, anti-FLAG mouse antibody (M2 clone)-HRP conjugated (Sigma, A8592, 1:3000 dilution) or anti-human kappa goat antibody-HRP conjugated (Invitrogen, A18853, 1:3000 dilution) was treated for binding detection. Same volume of TMB (Thermo, PI34028) was added as a substrate, and then enzymatic reaction was stopped by adding of 2N sulfonic acid. The monomeric Fc fused-CD16a (Fc γRIIIa), CD64 (Fc γRIa) and CD32 (Fc γRIIa) were obtained from Prof. Wei Li (University of Pittsburgh, PA) and used for Fc gamma receptor (FcγR) binding test.

[6] = molecular target: T5, Human IgG1 Fc-fused CEACAM5 A3B3 …; test: SPR (BIAcore)
[7] = molecular target: T6, human CEACAM1 on Freestyle 293F cells (human, UniProt P13688 35-526); test: flow cytometry on transfected HEK293F cells
T6 construct: whole, on cells; Gene carries a FLAG-tag at the C-terminal; Transiently expressed
T6 sequence (looked up): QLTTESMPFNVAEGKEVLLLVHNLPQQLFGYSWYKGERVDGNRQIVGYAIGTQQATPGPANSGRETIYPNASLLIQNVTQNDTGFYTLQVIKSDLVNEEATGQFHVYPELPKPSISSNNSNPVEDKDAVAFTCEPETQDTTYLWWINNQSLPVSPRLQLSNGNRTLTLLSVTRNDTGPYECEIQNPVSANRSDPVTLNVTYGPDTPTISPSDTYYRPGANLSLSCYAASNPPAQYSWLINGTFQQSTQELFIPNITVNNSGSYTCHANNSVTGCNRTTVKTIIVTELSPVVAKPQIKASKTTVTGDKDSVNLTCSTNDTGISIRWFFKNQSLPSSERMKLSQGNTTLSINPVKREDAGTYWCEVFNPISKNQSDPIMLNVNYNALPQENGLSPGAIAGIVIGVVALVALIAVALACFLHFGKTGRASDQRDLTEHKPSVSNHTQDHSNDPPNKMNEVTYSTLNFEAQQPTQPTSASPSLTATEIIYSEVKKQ
Method: (§1) To determine the cell surface expression levels of CEACAM5 or CEACAM family proteins, the cells were stained with PE-conjugated anti-CEACAM5 IgG1 (Miltenyi Biotec, 130-114-217) or PE-conjugated anti-FLAG mouse antibody (Miltenyi Biotec, 130-101-576). To confirm cell surface binding of selected antibodies, cells were treated with a hIgG1 having the CDRs of Clone #1, a hIgG1 having the CDRs of Clone #2, or the Clone #1 Fab for 1 hour at 4° C. and then stained with Alexa647-conjugated goat anti-human IgG (Invitrogen, A21445) or FITC conjugated-goat anti-human kappa light chain (Invitrogen, A18854) for 0.5 hours at 4° C. For the internalization assays, cells (1×10⁵ cells/well in 96-well plate) were treated with Alexa488-labeled antibodies for durations between 0 and 30 hours. After incubation of antibodies, cells were washed with cold PBS, and then the remained cell surface binding antibodies were analyzed using Alexa488 fluorescence. For CAR expression on anti-CEACAM5 CAR-T cells, CD4⁺ T or CD8⁺ T cells were gated using APC-conjugated anti-human CD4 antibody (ebioscience, 17-0049-42) and eFluor450-conjugated anti-human CD8 antibody (ebioscience, 48-0088-42), and CAR expression was examined using FITC-labeled recombinant Protein L (Acrobiosystems, RPL-PF141).

[8] = molecular target: T7, human CEACAM18 on Freestyle 293F cells (human, UniProt A8MTB9 31-384); test: flow cytometry on transfected HEK293F cells
T7 construct: whole, on cells; Gene carries a FLAG-tag at the C-terminal; Transiently expressed
T7 sequence (looked up): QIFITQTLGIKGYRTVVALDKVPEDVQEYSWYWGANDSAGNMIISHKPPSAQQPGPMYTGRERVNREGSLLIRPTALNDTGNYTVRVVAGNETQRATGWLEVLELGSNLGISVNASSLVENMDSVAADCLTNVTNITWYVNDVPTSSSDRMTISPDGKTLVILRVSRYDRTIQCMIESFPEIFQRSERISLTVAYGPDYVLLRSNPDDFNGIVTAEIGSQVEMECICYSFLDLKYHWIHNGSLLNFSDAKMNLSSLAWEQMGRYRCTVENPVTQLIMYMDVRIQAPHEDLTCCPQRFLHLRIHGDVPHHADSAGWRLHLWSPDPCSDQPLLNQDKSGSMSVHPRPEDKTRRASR
Method: as §1

[9] = molecular target: T8, human CEACAM6 on Freestyle 293F cells (human, UniProt P40199 35-320); test: flow cytometry on transfected HEK293F cells
T8 construct: whole, on cells; Gene carries a FLAG-tag at the C-terminal; Transiently expressed; also called CD66c
T8 sequence (looked up): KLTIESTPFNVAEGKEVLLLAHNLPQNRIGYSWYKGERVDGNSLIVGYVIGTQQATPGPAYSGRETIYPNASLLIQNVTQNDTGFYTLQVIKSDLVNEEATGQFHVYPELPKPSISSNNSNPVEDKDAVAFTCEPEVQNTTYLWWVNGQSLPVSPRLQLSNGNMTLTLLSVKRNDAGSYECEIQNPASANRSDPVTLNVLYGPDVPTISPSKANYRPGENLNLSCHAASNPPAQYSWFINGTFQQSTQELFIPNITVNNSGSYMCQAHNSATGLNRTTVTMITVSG
Method: as §1

[10] = molecular target: T9, human CEACAM21 on Freestyle 293F cells (human, UniProt Q3KPI0 35-293); test: flow cytometry on transfected HEK293F cells
T9 construct: whole, on cells; Gene carries a FLAG-tag at the C-terminal; Transiently expressed
Method: as §1

[11] = molecular target: T10, human CEACAM20 on Freestyle 293F cells (human, UniProt Q6UY09 31-596); test: flow cytometry on transfected HEK293F cells
T10 construct: whole, on cells; Gene carries a FLAG-tag at the C-terminal; Transiently expressed
Method: as §1

[12] = molecular target: T11, human CEACAM16 on Freestyle 293F cells (human, UniProt Q2WEN9 21-425); test: flow cytometry on transfected HEK293F cells
T11 construct: whole, on cells; Gene carries a FLAG-tag at the C-terminal; Transiently expressed
T11 sequence (looked up): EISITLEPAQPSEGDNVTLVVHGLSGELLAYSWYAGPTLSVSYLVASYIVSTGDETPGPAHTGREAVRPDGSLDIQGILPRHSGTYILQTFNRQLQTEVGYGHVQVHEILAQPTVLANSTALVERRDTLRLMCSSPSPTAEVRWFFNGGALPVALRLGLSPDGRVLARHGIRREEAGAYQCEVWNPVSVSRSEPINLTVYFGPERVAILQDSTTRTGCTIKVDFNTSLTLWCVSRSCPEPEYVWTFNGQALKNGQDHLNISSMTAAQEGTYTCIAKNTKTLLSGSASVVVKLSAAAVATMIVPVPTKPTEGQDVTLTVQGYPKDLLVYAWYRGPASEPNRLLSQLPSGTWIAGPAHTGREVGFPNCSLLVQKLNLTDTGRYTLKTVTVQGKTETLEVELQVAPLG
Method: as §1

[13] = molecular target: T12, human CEACAM7 on Freestyle 293F cells (human, UniProt Q14002 36-242); test: flow cytometry on transfected HEK293F cells
T12 construct: whole, on cells; Gene carries a FLAG-tag at the C-terminal; Transiently expressed
T12 sequence (looked up): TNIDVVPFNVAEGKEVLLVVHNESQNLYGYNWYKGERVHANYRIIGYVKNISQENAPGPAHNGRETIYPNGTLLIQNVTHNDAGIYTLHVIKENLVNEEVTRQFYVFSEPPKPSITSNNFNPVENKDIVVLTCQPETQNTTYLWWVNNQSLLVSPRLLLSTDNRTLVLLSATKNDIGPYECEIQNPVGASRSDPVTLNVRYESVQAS
Method: as §1

[14] = molecular target: T13, human CEACAM8 on Freestyle 293F cells (human, UniProt P31997 35-320); test: flow cytometry on transfected HEK293F cells
T13 construct: whole, on cells; Gene carries a FLAG-tag at the C-terminal; Transiently expressed
T13 sequence (looked up): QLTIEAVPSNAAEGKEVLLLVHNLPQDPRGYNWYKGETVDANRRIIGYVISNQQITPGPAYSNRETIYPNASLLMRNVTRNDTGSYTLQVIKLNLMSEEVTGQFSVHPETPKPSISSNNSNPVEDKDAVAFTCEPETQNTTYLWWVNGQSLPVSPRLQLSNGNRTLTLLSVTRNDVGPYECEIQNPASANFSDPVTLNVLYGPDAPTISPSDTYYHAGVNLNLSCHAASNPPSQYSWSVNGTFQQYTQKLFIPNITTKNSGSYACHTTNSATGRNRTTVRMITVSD
Method: as §1

T10 sequence (Q6UY09 31-596): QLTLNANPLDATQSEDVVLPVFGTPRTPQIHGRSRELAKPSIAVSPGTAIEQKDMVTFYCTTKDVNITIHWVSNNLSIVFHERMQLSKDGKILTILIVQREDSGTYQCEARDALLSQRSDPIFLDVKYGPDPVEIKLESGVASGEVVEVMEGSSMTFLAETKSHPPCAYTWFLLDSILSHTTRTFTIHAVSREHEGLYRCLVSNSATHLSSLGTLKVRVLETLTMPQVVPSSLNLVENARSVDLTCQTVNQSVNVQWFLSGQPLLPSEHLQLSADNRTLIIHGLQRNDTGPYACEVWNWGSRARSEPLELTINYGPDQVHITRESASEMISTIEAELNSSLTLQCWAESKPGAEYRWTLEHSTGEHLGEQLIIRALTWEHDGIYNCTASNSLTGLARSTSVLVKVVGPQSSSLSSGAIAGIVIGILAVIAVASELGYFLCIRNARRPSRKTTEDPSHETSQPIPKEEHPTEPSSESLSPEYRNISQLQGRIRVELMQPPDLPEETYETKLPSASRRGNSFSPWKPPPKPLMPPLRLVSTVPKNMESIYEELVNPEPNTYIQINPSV
T9 sequence (Q3KPI0 35-293): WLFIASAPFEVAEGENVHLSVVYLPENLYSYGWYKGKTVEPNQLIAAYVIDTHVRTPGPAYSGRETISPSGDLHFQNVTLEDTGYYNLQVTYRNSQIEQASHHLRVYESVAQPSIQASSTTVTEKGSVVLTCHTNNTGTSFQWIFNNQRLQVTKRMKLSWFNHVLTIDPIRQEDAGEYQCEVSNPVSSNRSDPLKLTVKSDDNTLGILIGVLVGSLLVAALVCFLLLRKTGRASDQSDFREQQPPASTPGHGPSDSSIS

B1: Clone #1 Fab (1G9 Fab) (Fab, V domains shown)
VH: QVQLVESGGGLVKPGGSLRLSCAASGFTFSDYYMSWIRQAPGKGLEWVSYISSSGSTIYYADSVKGRFTISRDNAKNSLYLQMNSLRAEDTAVYYCARIGRYSYGLRSYYYYGMDVWGQGTTVTVSS
VL: DIQMTQSPSSLSASVGDRVTITCRASQSISSYLNWYQQKPGKAPKLLIYAASSLQSGVPSRFSGSGSGTDFTLTISSLQPEDFGVYYCMQALQTPVTFGQGTRLEIKR
notes: Human Fab from a phage library (IGHV3-11 / IGKV1-39 frameworks), made in E. coli and purified on Ni-NTA
[1]
  binding result: binds
[2]
  Kd: 1.91 nM
[3]
  binding result: no binding
[4]
  binding result: no binding
[5]
  EC50: ~6 nM
[6]
  Kd: 3 nM
[7]
  binding result: no binding
[8]
  binding result: no binding
[9]
  binding result: no binding
[10]
  binding result: no binding
[11]
  binding result: no binding
[12]
  binding result: no binding
[13]
  binding result: no binding
[14]
  binding result: no binding
